These results are taken from the Human Domainome abundance scans (Beltran et al. 2025).

To fix the notation:
B1: SH3 and PX domain-containing protein 2B, residues 155 to 209; numbered along this chain, A1X283 (parent)
chain: EQYVVVANYQKQESSEISLSVGQVVDIIEKNESGWWFVSTAEEQGWVPATCLEGQ

± gives the uncertainty stated by the source.

The variants in this data set derive from B1. In words: abundance fitness (aPCA) (normalised: wild type 0, dead -1); higher = more abundant; growth selection in yeast, the domain comes from the species named. Conditions: Homo sapiens.
For EQYVVVANYQKQRSSEISLSVGQVVDIIEKNESGWWFVSTAEEQGWVPATCLEGQ [E13R], the abundance fitness is -0.182 ± 0.081.

EQYVVVANYQKQYSSEISLSVGQVVDIIEKNESGWWFVSTAEEQGWVPATCLEGQ [E13Y]: the abundance fitness is -0.248 ± 0.11.

Take EQYVVVANYQKQSSSEISLSVGQVVDIIEKNESGWWFVSTAEEQGWVPATCLEGQ [E13S]: the abundance fitness is -0.158 ± 0.078.

EQYVVVANYQKQGSSEISLSVGQVVDIIEKNESGWWFVSTAEEQGWVPATCLEGQ [E13G]: the abundance fitness was -0.074 ± 0.065.

Take EQYVVVANYQKQHSSEISLSVGQVVDIIEKNESGWWFVSTAEEQGWVPATCLEGQ [E13H]: the abundance fitness is -0.154 ± 0.11.

With EQYVVVANYQKQDSSEISLSVGQVVDIIEKNESGWWFVSTAEEQGWVPATCLEGQ [E13D], the abundance fitness was -0.111 ± 0.14.

For the variant EQYVVVANYQKQASSEISLSVGQVVDIIEKNESGWWFVSTAEEQGWVPATCLEGQ [E13A], the abundance fitness is -0.359 ± 0.1.

For EQYVVVANYQKQMSSEISLSVGQVVDIIEKNESGWWFVSTAEEQGWVPATCLEGQ [E13M], the abundance fitness was -0.025 ± 0.12.

Turning to EQYVVVANYQKQFSSEISLSVGQVVDIIEKNESGWWFVSTAEEQGWVPATCLEGQ [E13F], the abundance fitness was -0.229 ± 0.13.

On to EQYVVVANYQKQNSSEISLSVGQVVDIIEKNESGWWFVSTAEEQGWVPATCLEGQ [E13N], for which the abundance fitness was -0.046 ± 0.16.

For the variant EQYVVVANYQKQWSSEISLSVGQVVDIIEKNESGWWFVSTAEEQGWVPATCLEGQ [E13W], the abundance fitness was -0.467 ± 0.17.

With EQYVVVANYQKQLSSEISLSVGQVVDIIEKNESGWWFVSTAEEQGWVPATCLEGQ [E13L], the abundance fitness is -0.178 ± 0.071.

Turning to EQYVVVANYQKQTSSEISLSVGQVVDIIEKNESGWWFVSTAEEQGWVPATCLEGQ [E13T], the abundance fitness is -0.104 ± 0.1.

EQYVVVANYQKQPSSEISLSVGQVVDIIEKNESGWWFVSTAEEQGWVPATCLEGQ [E13P]: the abundance fitness was -0.598 ± 0.12.

Regarding EQYVVVANYQKQISSEISLSVGQVVDIIEKNESGWWFVSTAEEQGWVPATCLEGQ [E13I], the abundance fitness is -0.037 ± 0.12.

As to EQYVVVANYQKQCSSEISLSVGQVVDIIEKNESGWWFVSTAEEQGWVPATCLEGQ [E13C], the abundance fitness was -0.19 ± 0.1.

Turning to EQYVVVANYQKQVSSEISLSVGQVVDIIEKNESGWWFVSTAEEQGWVPATCLEGQ [E13V], the abundance fitness was -0.065 ± 0.071.

For EQYVVVANYQKQKSSEISLSVGQVVDIIEKNESGWWFVSTAEEQGWVPATCLEGQ [E13K], the abundance fitness is -0.015 ± 0.15.

Consider EQYVVVANYQKQERSEISLSVGQVVDIIEKNESGWWFVSTAEEQGWVPATCLEGQ [S14R], for which the abundance fitness was -0.073 ± 0.068.

Regarding EQYVVVANYQKQEHSEISLSVGQVVDIIEKNESGWWFVSTAEEQGWVPATCLEGQ [S14H], the abundance fitness is -0.125 ± 0.14.

As to EQYVVVANYQKQEFSEISLSVGQVVDIIEKNESGWWFVSTAEEQGWVPATCLEGQ [S14F], the abundance fitness is -0.458 ± 0.15.

Take EQYVVVANYQKQEWSEISLSVGQVVDIIEKNESGWWFVSTAEEQGWVPATCLEGQ [S14W]: the abundance fitness is -0.171 ± 0.1.

Regarding EQYVVVANYQKQEMSEISLSVGQVVDIIEKNESGWWFVSTAEEQGWVPATCLEGQ [S14M], the abundance fitness is -0.05 ± 0.13.

Turning to EQYVVVANYQKQECSEISLSVGQVVDIIEKNESGWWFVSTAEEQGWVPATCLEGQ [S14C], the abundance fitness is -0.018 ± 0.1.

In the case of EQYVVVANYQKQETSEISLSVGQVVDIIEKNESGWWFVSTAEEQGWVPATCLEGQ [S14T], the abundance fitness is -0.036 ± 0.087.

Take EQYVVVANYQKQEPSEISLSVGQVVDIIEKNESGWWFVSTAEEQGWVPATCLEGQ [S14P]: the abundance fitness is -0.005 ± 0.1.

In the case of EQYVVVANYQKQELSEISLSVGQVVDIIEKNESGWWFVSTAEEQGWVPATCLEGQ [S14L], the abundance fitness is 0.027 ± 0.1.

Turning to EQYVVVANYQKQEGSEISLSVGQVVDIIEKNESGWWFVSTAEEQGWVPATCLEGQ [S14G], the abundance fitness was -0.071 ± 0.063.

EQYVVVANYQKQEYSEISLSVGQVVDIIEKNESGWWFVSTAEEQGWVPATCLEGQ [S14Y]: the abundance fitness is -0.073 ± 0.13.

As for EQYVVVANYQKQEASEISLSVGQVVDIIEKNESGWWFVSTAEEQGWVPATCLEGQ [S14A], the abundance fitness is -0.13 ± 0.11.

On to EQYVVVANYQKQEVSEISLSVGQVVDIIEKNESGWWFVSTAEEQGWVPATCLEGQ [S14V], for which the abundance fitness worked out at 0.014 ± 0.086.

EQYVVVANYQKQEISEISLSVGQVVDIIEKNESGWWFVSTAEEQGWVPATCLEGQ [S14I]: the abundance fitness turned out to be 0.014 ± 0.2.

Take EQYVVVANYQKQENSEISLSVGQVVDIIEKNESGWWFVSTAEEQGWVPATCLEGQ [S14N]: the abundance fitness is 0.083 ± 0.45.

On to EQYVVVANYQKQEKSEISLSVGQVVDIIEKNESGWWFVSTAEEQGWVPATCLEGQ [S14K], for which the abundance fitness worked out at 0.026 ± 0.11.

For EQYVVVANYQKQEQSEISLSVGQVVDIIEKNESGWWFVSTAEEQGWVPATCLEGQ [S14Q], the abundance fitness is -0.347 ± 0.2.

For the variant EQYVVVANYQKQESWEISLSVGQVVDIIEKNESGWWFVSTAEEQGWVPATCLEGQ [S15W], the abundance fitness is -0.049 ± 0.1.

Consider EQYVVVANYQKQESHEISLSVGQVVDIIEKNESGWWFVSTAEEQGWVPATCLEGQ [S15H], for which the abundance fitness is 0.055 ± 0.23.

For EQYVVVANYQKQESREISLSVGQVVDIIEKNESGWWFVSTAEEQGWVPATCLEGQ [S15R], the abundance fitness turned out to be 0.04 ± 0.073.

Regarding EQYVVVANYQKQESAEISLSVGQVVDIIEKNESGWWFVSTAEEQGWVPATCLEGQ [S15A], the abundance fitness is -0.01 ± 0.085.

As to EQYVVVANYQKQESTEISLSVGQVVDIIEKNESGWWFVSTAEEQGWVPATCLEGQ [S15T], the abundance fitness was -0.103 ± 0.12.

EQYVVVANYQKQESDEISLSVGQVVDIIEKNESGWWFVSTAEEQGWVPATCLEGQ [S15D]: the abundance fitness was 0.02 ± 0.15.

With EQYVVVANYQKQESEEISLSVGQVVDIIEKNESGWWFVSTAEEQGWVPATCLEGQ [S15E], the abundance fitness was -0.172 ± 0.11.

Take EQYVVVANYQKQESCEISLSVGQVVDIIEKNESGWWFVSTAEEQGWVPATCLEGQ [S15C]: the abundance fitness was -0.063 ± 0.1.

As for EQYVVVANYQKQESIEISLSVGQVVDIIEKNESGWWFVSTAEEQGWVPATCLEGQ [S15I], the abundance fitness was -0.201 ± 0.14.

Take EQYVVVANYQKQESYEISLSVGQVVDIIEKNESGWWFVSTAEEQGWVPATCLEGQ [S15Y]: the abundance fitness is -0.092 ± 0.092.

EQYVVVANYQKQESFEISLSVGQVVDIIEKNESGWWFVSTAEEQGWVPATCLEGQ [S15F]: the abundance fitness was -0.244 ± 0.093.

EQYVVVANYQKQESNEISLSVGQVVDIIEKNESGWWFVSTAEEQGWVPATCLEGQ [S15N]: the abundance fitness was -0.061 ± 0.23.

For the variant EQYVVVANYQKQESMEISLSVGQVVDIIEKNESGWWFVSTAEEQGWVPATCLEGQ [S15M], the abundance fitness is -0.18 ± 0.12.
